This note sets out measurements from publication PMC10592106 (Molecular cell, 2023).

For this assay, the target named is T1, FLAG-FBXL12-FL (full length) (human, UniProt Q9NXK8 1-326).
T1 sequence (looked up): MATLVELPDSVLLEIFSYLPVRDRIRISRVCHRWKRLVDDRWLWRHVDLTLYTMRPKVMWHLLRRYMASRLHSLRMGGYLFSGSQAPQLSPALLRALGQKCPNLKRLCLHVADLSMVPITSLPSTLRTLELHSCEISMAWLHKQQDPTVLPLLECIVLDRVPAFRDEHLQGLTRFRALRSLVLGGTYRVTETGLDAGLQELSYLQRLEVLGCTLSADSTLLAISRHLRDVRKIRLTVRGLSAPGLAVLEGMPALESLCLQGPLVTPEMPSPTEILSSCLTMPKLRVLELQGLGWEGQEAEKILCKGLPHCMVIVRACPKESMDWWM
Nature of the assay: pull-down.

Ends that are not written are not given here.

B1: FANCD2 N-terminal peptide WT, phosphorylated by CHK1 (peptide)
peptide: MVSKRRLSKSEDKE
modifications: also: phosphorylated by CHK1, residues not given here
For B1, the binding result is “binds”.
